Experimental data published in paper PMC9492806.
pKd: −log10 of the molar value.

Biological target: Recombinant human IGF-II R (cation-independent mannose-6-phosphate receptor, CI-MPR) (human) (UniProt P11717)
Test: SPR

| Substance | pKd |
| --- | --- |
| cetuximab M6P-glycoform 9 (cetuximab carrying the M6P tetrasaccharide moiety at the Fc glycosylation site) (antibody) | 7.15 |
| trastuzumab M6P-glycoform 3 (trastuzumab carrying the M6P tetrasaccharide moiety at the Fc glycosylation site) (antibody) | 7.54 |
| trastuzumab M6P-glycoform 6 (trastuzumab carrying the M6P-Man3GlcNAc2 glycan at the Fc glycosylation site) (antibody) | 6.15 |

The remaining substances from weak to strong by pKd, led by results:

| pKd | Substance |
| --- | --- |
| 7.53 | cetuximab M6P-glycoform 10 (cetuximab carrying the bis-phosphorylated heptasaccharide moiety at the Fc glycosylation site) (antibody) |
| 8.27 | trastuzumab M6P-glycoform 7 (trastuzumab carrying the bis-phosphorylated heptasaccharide moiety at the Fc glycosylation site) (antibody) |
